Data from patent EP4793286A1 (Shanghai Scizeng Medical Technology Co., Ltd., dated 2026).

T1: hCD32A (167 His, His Tag, Sino Biological, 10374-H08C1) (human, UniProt P12318 34-218)
T1 construct: Bought protein; not shown: His tag
T1 sequence (looked up): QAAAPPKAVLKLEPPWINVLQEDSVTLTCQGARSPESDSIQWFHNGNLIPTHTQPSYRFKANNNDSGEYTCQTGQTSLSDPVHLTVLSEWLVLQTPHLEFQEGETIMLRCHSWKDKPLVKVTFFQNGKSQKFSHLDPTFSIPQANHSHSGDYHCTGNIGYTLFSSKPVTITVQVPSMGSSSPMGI

T2: hCD32B (ECD, His tag, Sino Biological, 10259-H08C) (human, UniProt P31994 43-217)
T2 construct: extracellular domain; Bought protein; not shown: His tag
T2 sequence (looked up): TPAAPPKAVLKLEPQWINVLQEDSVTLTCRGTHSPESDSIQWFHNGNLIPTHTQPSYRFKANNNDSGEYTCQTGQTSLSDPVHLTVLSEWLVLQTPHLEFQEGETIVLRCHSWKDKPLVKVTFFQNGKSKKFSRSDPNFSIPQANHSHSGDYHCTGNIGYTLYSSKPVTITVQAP

T3: cPD-1 on CHOS-cPD-1 cells (Macaca fascicularis, UniProt Q15116 25-288 (human entry))
T3 chain: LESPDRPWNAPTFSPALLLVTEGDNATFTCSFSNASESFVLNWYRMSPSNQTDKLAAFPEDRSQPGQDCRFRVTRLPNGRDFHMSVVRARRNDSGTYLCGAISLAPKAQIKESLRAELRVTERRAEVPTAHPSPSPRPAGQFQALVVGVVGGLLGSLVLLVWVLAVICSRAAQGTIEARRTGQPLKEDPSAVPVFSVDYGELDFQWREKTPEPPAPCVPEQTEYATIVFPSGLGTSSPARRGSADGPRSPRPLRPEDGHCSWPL

T4: cPD-1 ECD-Avi-His (Macaca fascicularis, UniProt Q15116 25-170 (human entry))
T4 construct: tied to the construct by its name only; not shown: Avi tag and His tag
T4 chain: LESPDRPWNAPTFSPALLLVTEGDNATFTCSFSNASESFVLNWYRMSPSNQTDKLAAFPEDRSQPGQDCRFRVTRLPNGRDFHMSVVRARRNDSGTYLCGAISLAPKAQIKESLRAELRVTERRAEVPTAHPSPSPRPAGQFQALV

B1: 1C4-zu1-hIgG1 (antibody)
heavy: not shown
light: DIVMTQSPKSLAVSLGERATINCKASQSVTNNVAWYQQKPGQPPKLLIYYVSNRYTGVPDRFSGSGYGTDFTLTISSLQAEDVAVYFCQQDYSSWTFGGGTKVEIKRTVAAPSVFIFPPSDEQLKSGTASVVCLLNNFYPREAKVQWKVDNALQSGNSQESVTEQDSKDSTYSLSSTLTLSKADYEKHKVYACEVTHQGLSSPVTKSFNRGEC
notes: Humanized form of B1-1C4-H1L1; human IgG1 / kappa
B2: 1C4-zu1-hIgG1 DD (antibody)
heavy: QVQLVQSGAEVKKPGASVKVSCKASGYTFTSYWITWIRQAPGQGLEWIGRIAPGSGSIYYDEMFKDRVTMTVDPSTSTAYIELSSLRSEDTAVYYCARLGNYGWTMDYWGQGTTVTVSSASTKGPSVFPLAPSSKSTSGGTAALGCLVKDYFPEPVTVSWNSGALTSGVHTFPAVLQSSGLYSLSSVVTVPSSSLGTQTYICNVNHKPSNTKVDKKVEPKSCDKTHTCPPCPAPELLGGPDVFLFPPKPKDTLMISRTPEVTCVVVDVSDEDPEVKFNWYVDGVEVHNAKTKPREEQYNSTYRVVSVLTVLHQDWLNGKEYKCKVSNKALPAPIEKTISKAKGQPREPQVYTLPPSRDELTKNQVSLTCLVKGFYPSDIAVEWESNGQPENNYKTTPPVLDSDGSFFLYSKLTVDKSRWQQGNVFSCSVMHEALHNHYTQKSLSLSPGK
light: B1 light
notes: Fc mutant of 1C4-zu1-hIgG1 with S239D/H268D (EU numbering)
B3: 1B5-zu1-hIgG1 (antibody)
heavy: not shown
light: EIVLTQSPATLSLSPGERATLTCRASSSVSSSYLLWYQQKSGAAPRLWIYSTSNLASGVPARFSGSGSGTDFTLTISSLEPEDFATYYCQQYSGYPLTFGQGTKLEIKRTVAAPSVFIFPPSDEQLKSGTASVVCLLNNFYPREAKVQWKVDNALQSGNSQESVTEQDSKDSTYSLSSTLTLSKADYEKHKVYACEVTHQGLSSPVTKSFNRGEC
notes: Humanized form of B1-1B5-H1L1; human IgG1 / kappa
B4: 1B5-zu1-hIgG1 DD (antibody)
heavy: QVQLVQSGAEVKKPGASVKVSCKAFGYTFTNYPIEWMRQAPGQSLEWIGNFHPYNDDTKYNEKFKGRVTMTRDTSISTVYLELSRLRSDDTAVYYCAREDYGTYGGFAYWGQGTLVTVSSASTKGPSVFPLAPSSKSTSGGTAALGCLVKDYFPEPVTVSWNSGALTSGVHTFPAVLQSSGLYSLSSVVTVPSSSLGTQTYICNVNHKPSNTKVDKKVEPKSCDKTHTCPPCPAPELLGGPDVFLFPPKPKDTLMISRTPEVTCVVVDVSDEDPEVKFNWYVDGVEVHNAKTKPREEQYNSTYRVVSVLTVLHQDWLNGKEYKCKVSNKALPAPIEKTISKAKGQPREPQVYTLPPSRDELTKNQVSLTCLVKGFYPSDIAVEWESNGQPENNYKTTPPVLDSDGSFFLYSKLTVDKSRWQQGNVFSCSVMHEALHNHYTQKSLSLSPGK
light: B3 light
notes: Fc mutant of 1B5-zu1-hIgG1 with S239D/H268D (EU numbering)
B5: B1-1B5-H1L1 (antibody, human IgG1, kappa, V domains shown)
VH: EVQLQQSGAELVKPGASVKMSCKAFGYTFTNYPIEWMKQSHGKSLEWIGNFHPYNDDTKYNEKFKGKAKLTVEKSSSTVYLELSRLTSDDSAVYYCAREDYGTYGGFAYWGQGTLVTVSS
VL: EITVTQSPAIMSASPGEKVTMTCRASSSVSSSYLLWYQQKSGASPKLWIYSTSNLASGVPARFSGSGSGTSYSLTISSVEAEDAATYYCQQYSGYPLTFGAGTKLELKR
B6: B1-1C4-H1L1 (antibody, human IgG1, kappa, V domains shown)
VH: EVQLQQSGDDLVKPGASVKLSCKASGYTFTSYWITWIKQRPGQGLEWIGRIAPGSGSIYYDEMFKDKATLTVDPSSSTAYIQLSSLSSEDSAVYFCARLGNYGWTMDYWGQGTSVTVSS
VL: DIVMTQTPKFLLVSAGDRVTITCKASQSVTNNVAWYQQAPGQSPKLLIYYVSNRYTGVPDRFAGSGYGTDFTFTISTVQAEDLAVYFCQQDYSSWTFGGGTKLEIKR

Biological target: T5, PD1 on Jurkat-PD1-NFAT reporter cells (UniProt Q15116 25-288, limits assumed)
Experiment: cell-based or functional assay

T5 sequence (Q15116 25-288 limits assumed): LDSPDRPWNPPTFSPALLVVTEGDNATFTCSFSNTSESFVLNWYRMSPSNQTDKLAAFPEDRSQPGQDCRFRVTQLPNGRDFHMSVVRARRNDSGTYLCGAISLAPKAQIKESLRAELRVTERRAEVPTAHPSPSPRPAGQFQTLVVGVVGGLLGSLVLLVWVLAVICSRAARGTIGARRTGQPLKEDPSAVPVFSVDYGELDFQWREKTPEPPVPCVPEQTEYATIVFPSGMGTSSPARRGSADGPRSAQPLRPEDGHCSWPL

Q: For B1, which “EC50 of inhibition of Jurkat-PD1-NFAT reporter cell activation” value is on record?
A: 0.12 nM

Q: With B2 as the binder, how does the “EC50 of inhibition of Jurkat-PD1-NFAT reporter cell activation” value read?
A: 0.16 nM

Q: B3 was tested. Which “EC50 of inhibition of Jurkat-PD1-NFAT reporter cell activation” value did it give?
A: 0.13 nM

Q: B4 was tested. Which “EC50 of inhibition of Jurkat-PD1-NFAT reporter cell activation” value did it give?
A: 0.15 nM

Biological target: T6, hPD-1 on CHOS-hPD-1 cells (Homo sapiens, UniProt Q15116 25-288)
Experiment: cell-based or functional assay

T6 sequence (Q15116 25-288 limits assumed): as above

Q: With B1 as the binder, how does the “EC50 of ADCC (LDH release, human NK cells, target cells CHOS-hPD-1)” value (from here on “EC50 of ADCC”) read?
A: 1.9 pM

Q: For B2, which “EC50 of ADCC” value is on record?
A: 0.33 pM

Q: For B3, which “EC50 of ADCC” value is on record?
A: 5.12 pM

Q: For B4, which “EC50 of ADCC” value is on record?
A: 0.44 pM

Biological target: T1, hCD32A (167 His, His Tag, Sino …)
Experiment: SPR; ratio against 1C4-zu1-hIgG1; end of the range assigned by Table 7

Q: With B2 as the binder, how does the “fold higher affinity than the antibody without DD” value read?
A: 3 to 4 fold

Biological target: T2, hCD32B (ECD, His tag, Sino Biological, …)
Experiment: SPR; ratio against 1B5-zu1-hIgG1; end of the range assigned by Table 8

Q: With B4 as the binder, how does the “fold higher affinity than the antibody without DD” value read?
A: 6 to 9 fold

Biological target: T7, hCD16A(158F)-ECD-C-his (human, UniProt P08637 17-208)
T7 construct: extracellular domain; Homemade; not shown: C-terminal His tag
Experiment: SPR; ratio against 1C4-zu1-hIgG1; end of the range assigned by Table 9

T7 sequence (P08637 17-208): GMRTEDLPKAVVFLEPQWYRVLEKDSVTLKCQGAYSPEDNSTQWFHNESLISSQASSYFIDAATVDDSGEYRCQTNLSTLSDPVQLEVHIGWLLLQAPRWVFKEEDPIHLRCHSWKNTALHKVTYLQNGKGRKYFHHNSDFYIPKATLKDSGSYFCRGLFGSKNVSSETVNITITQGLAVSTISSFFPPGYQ

Q: How did the “fold higher affinity than the antibody without DD” value turn out when B2 was run?
A: 3 to 6 fold

Biological target: T8, hCD16A(158V)-ECD-C-his (human, UniProt P08637 17-208)
T8 construct: extracellular domain; Homemade; not shown: C-terminal His tag
Experiment: SPR; ratio against 1C4-zu1-hIgG1; end of the range assigned by Table 10

T8 sequence (P08637 17-208 F176V): as the sequence (P08637 17-208) above, with F160V counted along it

Q: For B2, which “fold higher affinity than the antibody without DD” value is on record?
A: 3 to 4 fold

Biological target: T8, hCD16A(158V)-ECD-C-his
Experiment: SPR; ratio against 1B5-zu1-hIgG1; end of the range assigned by Table 10

Q: Which “fold higher affinity than the antibody without DD” value does the source give for B4 here?
A: 3 to 4 fold

Biological target: T5, PD1 on Jurkat-PD1-NFAT reporter cells
Experiment: cell-based or functional assay
Remark: another data set of the same source

Q: For B5, which “EC50 of inhibition of Jurkat-PD1-NFAT reporter cell activation” value is on record?
A: 0.12 nM

Q: For B6, which “EC50 of inhibition of Jurkat-PD1-NFAT reporter cell activation” value is on record?
A: 0.14 nM

Biological target: T7, hCD16A(158F)-ECD-C-his
Experiment: SPR (Biacore 8K), His-tagged Fc receptor captured by anti-His antibody on CM5 chip, antibody flowed as analyte

Q: Which Kd does the source give for B1 here?
A: 222 nM

Q: What about the koff of the same binder?
A: 0.0248 s⁻¹

Q: What about the kon of the same binder?
A: 112000 M⁻¹ s⁻¹

Q: B2 was tested. Which Kd did it give?
A: 62.7 nM

Q: And the koff?
A: 0.0423 s⁻¹

Q: And the kon?
A: 674000 M⁻¹ s⁻¹

Q: Which results are given for B3?
A: Kd: 326 nM; koff: 0.03 s⁻¹; kon: 92100 M⁻¹ s⁻¹

Q: B4 was tested. Which Kd did it give?
A: 51.8 nM

Q: What about the koff of the same binder?
A: 0.0354 s⁻¹

Q: And the kon?
A: 684000 M⁻¹ s⁻¹

Biological target: T7, hCD16A(158F)-ECD-C-his
Experiment: SPR; ratio against 1B5-zu1-hIgG1; end of the range assigned by Table 9

Q: B4 was tested. Which “fold higher affinity than the antibody without DD” value did it give?
A: 3 to 6 fold

Biological target: T1, hCD32A (167 His, His Tag, Sino …)
Experiment: SPR; ratio against 1B5-zu1-hIgG1; end of the range assigned by Table 7

Q: With B4 as the binder, how does the “fold higher affinity than the antibody without DD” value read?
A: 3 to 4 fold

Biological target: T1, hCD32A (167 His, His Tag, Sino …)
Experiment: SPR (Biacore 8K), His-tagged Fc receptor captured by anti-His antibody on CM5 chip, antibody flowed as analyte

Q: How did the Kd turn out when B1 was run?
A: 4.94 µM

Q: B2 was tested. Which Kd did it give?
A: 1.61 µM

Q: Which Kd does the source give for B3 here?
A: 5.43 µM

Q: For B4, which Kd is on record?
A: 1.47 µM

Biological target: T3, cPD-1 on CHOS-cPD-1 cells
Experiment: flow cytometry on CHOS-cPD-1 cells, MFI, 4-parameter fit

Q: Which EC50 does the source give for B1 here?
A: 20.3 nM

Q: How did the EC50 turn out when B2 was run?
A: 20.1 nM

Q: For B3, which EC50 is on record?
A: 20.2 nM

Q: With B4 as the binder, how does the EC50 read?
A: 19.9 nM

Biological target: T2, hCD32B (ECD, His tag, Sino Biological, …)
Experiment: SPR (Biacore 8K), His-tagged Fc receptor captured by anti-His antibody on CM5 chip, antibody flowed as analyte

Q: B1 was tested. Which Kd did it give?
A: 10 µM

Q: For B2, which Kd is on record?
A: 1.68 µM

Q: For B3, which Kd is on record?
A: 13.4 µM

Q: B4 was tested. Which Kd did it give?
A: 1.53 µM

Biological target: T9, hPD-1 ECD-Avi-His (human, UniProt Q15116 25-170)
T9 construct: tied to the construct by its name only; not shown: Avi tag and His tag
Experiment: SPR (Biacore 8K), antibody captured on Protein A chip, antigen flowed as analyte

T9 sequence (Q15116 25-170): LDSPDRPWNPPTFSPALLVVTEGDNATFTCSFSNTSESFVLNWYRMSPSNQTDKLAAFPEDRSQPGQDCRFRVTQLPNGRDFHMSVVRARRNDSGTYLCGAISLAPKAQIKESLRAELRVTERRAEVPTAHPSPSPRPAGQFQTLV

Q: Which results are given for B1?
A: Kd: 8.26 nM; koff: 0.00195 s⁻¹; kon: 236000 M⁻¹ s⁻¹

Q: How did the Kd turn out when B2 was run?
A: 8.05 nM

Q: And the koff?
A: 0.00194 s⁻¹

Q: What about the kon of the same binder?
A: 240000 M⁻¹ s⁻¹

Q: For B3, which Kd is on record?
A: 11.8 nM

Q: What about the koff of the same binder?
A: 0.0024 s⁻¹

Q: What about the kon of the same binder?
A: 204000 M⁻¹ s⁻¹

Q: Which Kd does the source give for B4 here?
A: 11.1 nM

Q: What about the koff of the same binder?
A: 0.00231 s⁻¹

Q: What about the kon of the same binder?
A: 209000 M⁻¹ s⁻¹

Biological target: T6, hPD-1 on CHOS-hPD-1 cells
Experiment: flow cytometry on CHOS-hPD-1 cells, MFI, 4-parameter fit

Q: For B1, which EC50 is on record?
A: 14.3 nM

Q: B2 was tested. Which EC50 did it give?
A: 13.7 nM

Q: For B3, which EC50 is on record?
A: 11.9 nM

Q: Which EC50 does the source give for B4 here?
A: 12.1 nM

Biological target: T8, hCD16A(158V)-ECD-C-his
Experiment: SPR (Biacore 8K), His-tagged Fc receptor captured by anti-His antibody on CM5 chip, antibody flowed as analyte

Q: With B1 as the binder, how does the Kd read?
A: 80.2 nM

Q: What about the koff of the same binder?
A: 0.00775 s⁻¹

Q: And the kon?
A: 96600 M⁻¹ s⁻¹

Q: What does the source list for B2?
A: Kd: 25.4 nM; koff: 0.0113 s⁻¹; kon: 445000 M⁻¹ s⁻¹

Q: What does the source list for B3?
A: Kd: 83 nM; koff: 0.00798 s⁻¹; kon: 96100 M⁻¹ s⁻¹

Q: Which results are given for B4?
A: Kd: 21.5 nM; koff: 0.0103 s⁻¹; kon: 481000 M⁻¹ s⁻¹

Biological target: T2, hCD32B (ECD, His tag, Sino Biological, …)
Experiment: SPR; ratio against 1C4-zu1-hIgG1; end of the range assigned by Table 8

Q: B2 was tested. Which “fold higher affinity than the antibody without DD” value did it give?
A: 6 to 9 fold

Biological target: T4, cPD-1 ECD-Avi-His
Experiment: SPR (Biacore 8K), antibody captured on Protein A chip, antigen flowed as analyte

Q: How did the Kd turn out when B1 was run?
A: 15.6 nM

Q: And the koff?
A: 0.00392 s⁻¹

Q: What about the kon of the same binder?
A: 251000 M⁻¹ s⁻¹

Q: With B2 as the binder, how does the Kd read?
A: 15.2 nM

Q: What about the koff of the same binder?
A: 0.00393 s⁻¹

Q: What about the kon of the same binder?
A: 259000 M⁻¹ s⁻¹

Q: What does the source list for B3?
A: Kd: 38.5 nM; koff: 0.00841 s⁻¹; kon: 219000 M⁻¹ s⁻¹

Q: B4 was tested. Which Kd did it give?
A: 35.1 nM

Q: What about the koff of the same binder?
A: 0.00856 s⁻¹

Q: What about the kon of the same binder?
A: 243000 M⁻¹ s⁻¹
